Experimental data reported in US9512220 (dated 2016).

Experiments:
[1] = target: T1, Angiopoietin 1 (UniProt Q15389); assay: competition, blocking Tie-2
T1 chain: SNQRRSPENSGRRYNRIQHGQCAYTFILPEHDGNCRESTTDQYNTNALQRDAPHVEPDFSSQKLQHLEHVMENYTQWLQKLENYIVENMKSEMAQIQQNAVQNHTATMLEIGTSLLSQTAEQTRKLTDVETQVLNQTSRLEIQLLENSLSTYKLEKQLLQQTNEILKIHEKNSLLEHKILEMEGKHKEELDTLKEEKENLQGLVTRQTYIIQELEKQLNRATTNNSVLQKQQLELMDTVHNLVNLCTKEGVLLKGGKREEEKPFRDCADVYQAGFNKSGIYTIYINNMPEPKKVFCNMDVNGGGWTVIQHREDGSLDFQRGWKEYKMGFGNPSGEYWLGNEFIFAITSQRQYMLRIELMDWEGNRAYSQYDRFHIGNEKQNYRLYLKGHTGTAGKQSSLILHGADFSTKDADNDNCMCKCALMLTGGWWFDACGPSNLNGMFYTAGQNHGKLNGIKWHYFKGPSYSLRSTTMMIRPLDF

[2] = target: T2, Angiopoietin 2 (UniProt O15123); assay: competition, blocking Tie-2
T2 chain: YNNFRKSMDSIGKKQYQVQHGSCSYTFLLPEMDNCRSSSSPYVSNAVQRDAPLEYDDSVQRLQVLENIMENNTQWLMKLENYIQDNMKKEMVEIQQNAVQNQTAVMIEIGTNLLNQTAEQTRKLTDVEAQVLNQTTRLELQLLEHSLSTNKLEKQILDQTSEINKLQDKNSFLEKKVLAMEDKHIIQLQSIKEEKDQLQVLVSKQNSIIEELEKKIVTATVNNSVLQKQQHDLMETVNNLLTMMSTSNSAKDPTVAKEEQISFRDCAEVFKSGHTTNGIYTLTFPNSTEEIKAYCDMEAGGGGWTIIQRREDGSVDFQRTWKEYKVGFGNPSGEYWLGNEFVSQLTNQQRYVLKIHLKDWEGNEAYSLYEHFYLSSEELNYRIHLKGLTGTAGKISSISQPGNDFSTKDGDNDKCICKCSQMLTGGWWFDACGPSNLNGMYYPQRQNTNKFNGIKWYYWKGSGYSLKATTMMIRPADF

Binder | IC50 [1] [nM] | IC50 [2] [nM]
HC22/LC22 (antibody, V domains shown) VH: EVQLVQSGAEVKKPGASVKVSCKASGGTFSSYAISWVRQAPGQGLEWMGGIIPIFGTANYAQKFQGRVTITADESTSTAYMELSSLRSEDTAVYYCARGGSGRFDYWGQGTLVTVSS VL: QSALTQPASVSGSPGESIIISCTGTSSDVGAYNYVSWYQQHLGKAPKLMIYDVSQRPSGVSDRFSGSKSGNTASLTISGLQAEDEADYYCSSFTGDSVIFGGGTKLTVL | 0.24 | 0.03
HC2/LC2 (antibody, V domains shown) VH: EVQLLESGGGLVQPGGSLRLSCAASGFTFSNYAMSWVRQAPGKGLEWVSVISPGSGNTYYADSVKGRFTISRDNSKNTLYLQMNSLRAEDTAVYYCAKGALKCRHRSCSSYNAMDVWGQGTLVTVSS VL: QSVLTQPPSASGTPGQRVTISCTGSSSNIGNNDVSWYQQLPGTAPKLLIYDNNHRPSGVPDRFSGSKSGTSASLAISGLRSEDEADYYCGTWDASLNGYVFGGGTKLTVL | 0.23 | 0.06
HC18/LC18 (antibody, V domains shown) VH: EVQLLESGGGLVQPGGSLRLSCAASGFTFSDYDMSWVRQAPGKGLEWVSWISPDDGSIYYADSVKGRFTISRDNSKNTLYLQMNSLRAEDTAVYYCARSVLPFDYWGQGTLVTVSS VL: QSVLTQPPSASGTPGQRVTISCSGSSSNIGSNAVYWYQQLPGTAPKLLIYDDSKRPSGVPDRFSGSKSGTSASLAISGFRSEDEADYYCGSWDASLNAYVFGGGTKLTVL | 0.24 | 2.85
HC10/LC10 (antibody, V domains shown) VH: EVQLVESGGGLVQPGGSLRLSCAASGFTFSNYAMSWVRQAPGKGLEWVSWIYPDNGNTYYADSVKGRFTISRDNSKNTLYLQMNSLRAEDTAVYYCAKYSLDKYTPWPYSYYGMDVWGQGTLVTVSS VL: QSVLTQPPSASGTPGQRVTISCTGSSSNIGNNAVTWYQQLPGTAPKLLIYDDSHRPSGAPDRFSGSKSGTSASLAISGLRSEDEADYYCGTWDASLSAYVFGGGTKLTVL | 0.19 | 1.22
HC8/LC8 (antibody, V domains shown) VH: EVQLLESGGGLVQPGGSLRLSCAASGFTFSNYSMSWVRQAPGKGLEWVSAISPGNGNKYYADSVKGRFTISRDNSKNTLYLQMNSLRAEDTAVYYCAKGLSSLLLVGFDYWGQGTLVTVSS VL: QSVLTQPPSASGTPGQRVTISCSGSSSNIGNNDVSWYQQLPGTAPKLLIYSDSQRPSGVPDRFSGSKSGTSASLAISGLRSEDEADYYCGSWDASLNGYVFGGGTKLTVL | 0.21 | 0.2
HC12/LC12 (antibody, V domains shown) VH: EVQLLESGGGLVQPGGSLRLSCAASGFTFSNYAMSWVRQAPGKGLEWVSVISPGSGNTYYADSVKGRFTISRDNSKNTLYLQMNSLRAEDTAVYYCAKGALKCRHRSCSSYNAMDVWGQGTLVTVSS VL: QSVLTQPPSASGTPGQRVTISCTGSSSNIGNNDVSWYQQLPGTAPKLLIYDNNHRPSGVPDRFSGSKSGTSASLAISGLRSEDEADYYCGTWDASLNGYVFGGGTKLTVL | 0.38 | 0.04
HC4/LC4 (antibody, V domains shown) VH: EVQLLESGGGLVQPGGSLRLSCAASGFTFSNYAMSWVRQAPGKGLEWVSAISHGGSSKYYADSVKGRFTISRDNSKNTLYLQMNSLRAEDTAVYYCARDRTASLLDGFDYWGQGTLVTVSS VL: QSVLTQPPSASGTPGQRVTISCSGSSSNIGNNYVNWYQQLPGTAPKLLIYADSNRPSGVPDRFSGSKSGTSASLAISGLRSEDEADYYCGTWDASLSGYVFGGGTKLTVL | 0.26 | 1.35
HC14/LC14 (antibody, V domains shown) VH: EVQLLESGGGLVQPGGSLGLSCAASGFTLSNYDMSWVRQAPGKGLEWVSWISPDSSSTYYADSVKGRFTISRDNSKNTLYLQMNSLRAEDTAVYYCARSVMPFDYWGQGTLVTVSS VL: QSVLTQPPSASGTPGQRVTISCSGSSSNIGSNAVYWYQQLPGTAPKLLIYDDSKRPSGVPDRFSGSKSGTSASLAIGGLRSEDEADYYCGAWDDSLSAYVFGGGTKLTVL | 0.74 | 0.08
HC16/LC16 (antibody, V domains shown) VH: EVQLLESGGGLVQPGGSLRLSCAASGFTFSDYYMSWVRQAPGKGLEWVSSISYDDGSRKYYADSGKRSVTISRDNSKNTLYLQMNSLRAEDTAVYYCARDRSTLRLDSFDYWGQGTLVTVSS VL: QSVLTQPPSASGTPGRRVTISCSGSSPNIGNNTVNWYQQLPGTAPKLLIYSDSHRPSGVPDRFSGSKSGTSASLAISGLRSEDEADYYCGAWDYSLNAYVFGGGTKLTVL | 0.26 | 0.32
